The target of this assay is human HLA-A24 and β2-microglobulin (human). The experiment in a line: MHC-peptide complex formation assay with human HLA-A24 and β2m (procedures of Example 1), sandwich ELISA, relative to positive control peptide.

LYFPNGETKY [TAL6 peptide No. 4 of Table 2, …]: the Relative binding (%) was 85%.

The molecule HIVEWNVSLF [TAL6 peptide No. 12 of Table 2, …] registered a Relative binding (%) of 28%.

Molecule CYGKCARCI [TAL6 peptide No. 1 of Table 2, …] yielded a Relative binding (%) of 126%. Molecule KYASENHLS [TAL6 peptide No. 5 of Table 2, …] displayed a Relative binding (%) of 64.6%. RFVWFFSGI [TAL6 peptide No. 6 of Table 2, …] gave a Relative binding (%) of 91.9%.

GGIEFILCL [TAL6 peptide No. 16 of Table 2, …] yielded a Relative binding (%) of 25.3%.

As for QYLLDTSTW [TAL6 peptide No. 11 of Table 2, …], the Relative binding (%) was 111%. Next, FFSGIVGGGL [TAL6 peptide No. 7 of Table 2, …]: 72.4%; TFASTEGQY [TAL6 peptide No. 9 of Table 2, …]: 49.2%. Next, EWNVSLFSIL [TAL6 peptide No. 15 of Table 2, …]: 22.2%.

Molecule GYCVIVAAL [TAL6 peptide No. 8 of Table 2, …] registered a Relative binding (%) of 118%.

Take GGIEFILCLI [TAL6 peptide No. 17 of Table 2, …]: the Relative binding (%) stood at 14.8%.

EWNVSLFSI [TAL6 peptide No. 14 of Table 2, …] gave a Relative binding (%) of 74%.

In turn, TFASTEGQYL [TAL6 peptide No. 10 of Table 2, …] showed a Relative binding (%) of 116%.

Consider IVEWNVSLF [TAL6 peptide No. 13 of Table 2, …], for which the Relative binding (%) worked out at 41%.

HSLVGLALL [TAL6 peptide No. 2 of Table 2, …] showed a Relative binding (%) of 61.7%.

The values are drawn from patent US20110038894A1.
